Data taken from PMC2944802, “CpG-Methylation Regulates a Class of Epstein-Barr Virus Promoters”.

B1: BBLF4 ZRE A (dsDNA)
DNA 1: ATGACTCGTGTGCGAGCCGGTTTCG
DNA 2: CGAAACCGGCTCGCACACGAGTCAT
B2: BMRF1 meZRE A (dsDNA)
DNA 1: TTGGTGGATGTGCGAGCCATAAAGC
DNA 2: GCTTTATGGCTCGCACATCCACCAA
modifications: 5mC at position 13 of strand 1; bottom-strand methylation not shown in material
B3: BRLF1 meZRE2 (dsDNA)
DNA 1: CTAAGCTTATGAGCGATTTTATCAC
DNA 2: GTGATAAAATCGCTCATAAGCTTAG
modifications: 5mC at position 14 of strand 1; bottom-strand methylation not shown in material
B4: BBLF4 meZRE B (dsDNA)
DNA 1: CTCTCCTATGAGCGTTATGTGGACT
DNA 2: AGTCCACATAACGCTCATAGGAGAG
modifications: 5mC at position 13 of strand 1; bottom-strand methylation not shown in material
B5: BMRF1 ZRE A (dsDNA)
DNA 1: TTGGTGGATGTGCGAGCCATAAAGC
DNA 2: GCTTTATGGCTCGCACATCCACCAA
B6: BBLF4 meZRE A (dsDNA)
DNA 1: ATGACTCGTGTGCGAGCCGGTTTCG
DNA 2: CGAAACCGGCTCGCACACGAGTCAT
modifications: 5mC at position 13 of strand 1; bottom-strand methylation not shown in material
B7: BRLF1 meZRE3 (dsDNA)
DNA 1: CAGTCAAAATTCGCGATGCTATAAA
DNA 2: TTTATAGCATCGCGAATTTTGACTG
modifications: 5mC at positions 12 and 14 of strand 1; bottom-strand methylation not shown in material
B8: oriLyt ZRE5 (dsDNA)
DNA 1: TTGTCACCTTTGCACATTTGGTCAG
DNA 2: CTGACCAAATGTGCAAAGGTGACAA
B9: BHLF1 ZRE2 (dsDNA)
DNA 1: TTTAAGGTTTGCTCAGGAGTGGGG
DNA 2: CCCCACTCCTGAGCAAACCTTAAA
B10: BRLF1 ZRE2 (dsDNA)
DNA 1: CTAAGCTTATGAGCGATTTTATCAC
DNA 2: GTGATAAAATCGCTCATAAGCTTAG
B11: BBLF4 ZRE B (dsDNA)
DNA 1: CTCTCCTATGAGCGTTATGTGGACT
DNA 2: AGTCCACATAACGCTCATAGGAGAG
B12: BMLF1 ZRE AP-1 (dsDNA)
DNA 1: GCGAAGCACTGACTCATGAAGGTGA
DNA 2: TCACCTTCATGAGTCAGTGCTTCGC
B13: BRLF1 ZRE3 (dsDNA)
DNA 1: CAGTCAAAATTCGCGATGCTATAAA
DNA 2: TTTATAGCATCGCGAATTTTGACTG

Target: Zta (BZLF1:Strep/FLAG) (Epstein-Barr virus, UniProt P03206 149-245)
Assay: EMSA; apparent, Hill fit; […]; pH and temperature not stated
Conditions: protein: recombinant; tags: tandem StrepII/FLAG; chain copies: 2; label: 32P 5' end; blunt

Chain of Zta (BZLF1:Strep/FLAG) (P03206 149-245): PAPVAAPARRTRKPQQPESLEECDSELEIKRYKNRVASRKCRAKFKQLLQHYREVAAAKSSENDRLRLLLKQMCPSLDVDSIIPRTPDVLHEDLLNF

Row | Binder | Kd
1 | B1 | 219 ± 41 nM
2 | B2 | 20.2 ± 12.5 nM
3 | B3 | 12.7 ± 8.2 nM
4 | B4 | 18 ± 4.2 nM
5 | B5 | 328 ± 166 nM
6 | B6 | 16.3 ± 2.6 nM
7 | B7 | 135 ± 45 nM
8 | B8 | 37.7 ± 4.3 nM
9 | B9 | 91.6 ± 38.5 nM
10 | B10 | 113 ± 11.9 nM
11 | B11 | 484 ± 244 nM
12 | B12 | 40.8 ± 23 nM
13 | B13 | 1190 ± 227 nM
